Patent US20080234175, “Process for Designing Inhibitors of Influenza Virus Structural Protein 1” (published 2008)

What was measured:
[1] = target: NS1A(1-73) RNA-binding domain of influenza A virus NS1 protein (Influenza A virus) (UniProt P03495); assay: EMSA; details: CITED Wang 1999; 10-fold higher affinity than for 55-bp dsRNA; cited from earlier work
[2] = target: NS1A(1-73) RNA-binding domain of influenza A virus NS1 protein (Influenza A virus, UniProt P03495 P03495:1-73); assay: sedimentation equilibrium, 25 C, 1:1 dimer:duplex; summarized as ~1 uM; details: tags: pET11a expression in E. coli BL21(DE3), no tag stated; chain copies: 2 (stated, homodimer); label: 5'-32P for gel shift; unlabeled otherwise
NS1A(1-73) RNA-binding domain of influenza A virus NS1 protein, sequence (P03495 1-73, one chain of several): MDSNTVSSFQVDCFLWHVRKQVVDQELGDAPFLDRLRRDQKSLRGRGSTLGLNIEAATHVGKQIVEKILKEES

NS1A(1-73) RNA-binding domain of influenza A virus NS1 protein (Influenza A virus), sequence (P03495 1-73): as the sequence (P03495 1-73, one chain of several) above

For 140-bp dsRNA, the binding signal [1] is given as 10 fold.

B1: 16-bp dsRNA (RR) (dsRNA)
RNA 1: CCAUCCUCUACAGGCG
RNA 2: CGCCUGUAGAGGAUGG
With B1 the Kd [2] was 748 nM.
